Laboratory results published in publication PMC3218832.

Assays:
[1] = system: RELA (p65) subunit of heterodimer;p50 subunit (Homo sapiens;Homo sapiens); assay: UV laser footprinting; settings: Footprinting/EMSA: 10 mM Tris pH 7.4, 75 mM NaCl, 1 mM EDTA, 1 mM DTT, 200 ug/ml BSA, 0.005% NP-40, EMSA-Seq: 12 mM HEPES pH 7.8, 75 mM KCl, 4 mM …
[2] = system: RELA (p65) subunit of heterodimer;p52 subunit (Homo sapiens;Homo sapiens); assay: UV laser footprinting; settings: Footprinting/EMSA: 10 mM Tris pH 7.4, 75 mM NaCl, 1 mM EDTA, 1 mM DTT, 200 ug/ml BSA, 0.005% NP-40, EMSA-Seq: 12 mM HEPES pH 7.8, 75 mM KCl, 4 mM …
[3] = system: RELA (p65) subunit of heterodimer;p50 subunit (Homo sapiens;Homo sapiens); assay: EMSA-Seq; settings: Footprinting/EMSA: 10 mM Tris pH 7.4, 75 mM NaCl, 1 mM EDTA, 1 mM DTT, 200 ug/ml BSA, 0.005% NP-40, EMSA-Seq: 12 mM HEPES pH 7.8, 75 mM KCl, 4 mM …
[4] = system: RELARELA (p65 homodimer) (Homo sapiens); assay: EMSA-Seq; settings: Footprinting/EMSA: 10 mM Tris pH 7.4, 75 mM NaCl, 1 mM EDTA, 1 mM DTT, 200 ug/ml BSA, 0.005% NP-40, EMSA-Seq: 12 mM HEPES pH 7.8, 75 mM KCl, 4 mM …
[5] = system: RELA (p65) subunit of heterodimer;p52 subunit (Homo sapiens;Homo sapiens); assay: EMSA-Seq; settings: Footprinting/EMSA: 10 mM Tris pH 7.4, 75 mM NaCl, 1 mM EDTA, 1 mM DTT, 200 ug/ml BSA, 0.005% NP-40, EMSA-Seq: 12 mM HEPES pH 7.8, 75 mM KCl, 4 mM …
[6] = target: RELA (p65) subunit of heterodimer;p52 subunit (Homo sapiens;Homo sapiens) (UniProt Q04206+Q00653); assay: footprint; settings: UV laser footprinting: 10 mM Tris pH 7.4, 75 mM NaCl, 1 mM EDTA, 1 mM DTT, 200 ug/ml BSA, 0.005% NP-40; microarray buffer in Additional file 1 (not seen); low values mean tight binding
[7] = target: RELARELA (p65 homodimer) (Homo sapiens) (UniProt Q04206); assay: footprint; settings: UV laser footprinting: 10 mM Tris pH 7.4, 75 mM NaCl, 1 mM EDTA, 1 mM DTT, 200 ug/ml BSA, 0.005% NP-40; microarray buffer in Additional file 1 (not seen); low values mean tight binding
[8] = target: RELA (p65) subunit of heterodimer;p50 subunit (Homo sapiens;Homo sapiens) (UniProt Q04206+P19838); assay: footprint; settings: UV laser footprinting: 10 mM Tris pH 7.4, 75 mM NaCl, 1 mM EDTA, 1 mM DTT, 200 ug/ml BSA, 0.005% NP-40; microarray buffer in Additional file 1 (not seen); low values mean tight binding
[9] = system: RELA (p65) subunit of heterodimer;p50 subunit (Homo sapiens;Homo sapiens); assay: protein binding microarray; settings: Footprinting/EMSA: 10 mM Tris pH 7.4, 75 mM NaCl, 1 mM EDTA, 1 mM DTT, 200 ug/ml BSA, 0.005% NP-40, EMSA-Seq: 12 mM HEPES pH 7.8, 75 mM KCl, 4 mM …
[10] = system: RELA (p65) subunit of heterodimer;p52 subunit (Homo sapiens;Homo sapiens); assay: protein binding microarray; settings: Footprinting/EMSA: 10 mM Tris pH 7.4, 75 mM NaCl, 1 mM EDTA, 1 mM DTT, 200 ug/ml BSA, 0.005% NP-40, EMSA-Seq: 12 mM HEPES pH 7.8, 75 mM KCl, 4 mM …
[11] = system: RELARELA (p65 homodimer) (Homo sapiens); assay: UV laser footprinting; settings: Footprinting/EMSA: 10 mM Tris pH 7.4, 75 mM NaCl, 1 mM EDTA, 1 mM DTT, 200 ug/ml BSA, 0.005% NP-40, EMSA-Seq: 12 mM HEPES pH 7.8, 75 mM KCl, 4 mM …
[12] = system: RELARELA (p65 homodimer) (Homo sapiens); assay: protein binding microarray; settings: Footprinting/EMSA: 10 mM Tris pH 7.4, 75 mM NaCl, 1 mM EDTA, 1 mM DTT, 200 ug/ml BSA, 0.005% NP-40, EMSA-Seq: 12 mM HEPES pH 7.8, 75 mM KCl, 4 mM …

Chain of RELA (p65) subunit of heterodimer;p50 subunit (Homo sapiens;Homo sapiens) (UniProt Q04206+P19838) (Q04206 1-307, chain 1 of 2): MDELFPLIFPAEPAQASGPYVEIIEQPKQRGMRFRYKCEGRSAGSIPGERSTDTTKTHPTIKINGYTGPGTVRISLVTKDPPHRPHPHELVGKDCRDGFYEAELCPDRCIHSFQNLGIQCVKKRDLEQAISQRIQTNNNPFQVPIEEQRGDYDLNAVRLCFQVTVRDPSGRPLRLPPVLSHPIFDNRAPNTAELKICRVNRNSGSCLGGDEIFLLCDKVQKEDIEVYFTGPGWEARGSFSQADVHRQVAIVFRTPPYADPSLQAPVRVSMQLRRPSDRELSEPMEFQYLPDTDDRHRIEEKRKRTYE
Chain of RELA (p65) subunit of heterodimer;p50 subunit (Homo sapiens;Homo sapiens) (UniProt Q04206+P19838) (P19838 7-356, chain 2 of 2): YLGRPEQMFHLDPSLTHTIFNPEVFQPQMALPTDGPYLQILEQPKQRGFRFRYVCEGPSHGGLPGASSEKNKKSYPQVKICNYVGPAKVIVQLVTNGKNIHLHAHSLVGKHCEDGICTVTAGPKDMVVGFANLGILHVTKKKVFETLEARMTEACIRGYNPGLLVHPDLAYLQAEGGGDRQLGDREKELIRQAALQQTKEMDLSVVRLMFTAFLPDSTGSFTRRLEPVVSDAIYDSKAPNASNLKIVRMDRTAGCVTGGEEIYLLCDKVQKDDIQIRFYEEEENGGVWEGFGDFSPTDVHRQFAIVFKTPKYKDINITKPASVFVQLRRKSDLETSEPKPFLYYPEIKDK
Chain of RELA (p65) subunit of heterodimer;p52 subunit (Homo sapiens;Homo sapiens) (UniProt Q04206+Q00653) (Q04206 1-307, chain 1 of 2): as the sequence (Q04206 1-307, chain 1 of 2) above
Chain of RELA (p65) subunit of heterodimer;p52 subunit (Homo sapiens;Homo sapiens) (UniProt Q04206+Q00653) (Q00653 4-332, chain 2 of 2): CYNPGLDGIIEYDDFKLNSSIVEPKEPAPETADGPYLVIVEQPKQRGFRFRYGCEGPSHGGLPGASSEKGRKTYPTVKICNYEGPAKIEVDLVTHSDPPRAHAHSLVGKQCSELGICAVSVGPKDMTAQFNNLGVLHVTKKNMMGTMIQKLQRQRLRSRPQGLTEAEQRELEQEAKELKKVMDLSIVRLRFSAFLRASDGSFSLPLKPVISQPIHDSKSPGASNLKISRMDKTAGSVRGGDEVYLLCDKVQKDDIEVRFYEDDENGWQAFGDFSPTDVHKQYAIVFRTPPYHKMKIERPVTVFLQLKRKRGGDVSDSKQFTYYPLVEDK
Chain of RELARELA (p65 homodimer) (Homo sapiens) (UniProt Q04206) (Q04206 1-307): as the sequence (Q04206 1-307, chain 1 of 2) above

AGGGGAAGTTA footprint probe
Kd [1]: 26 nM | Kd [2]: 20 nM

AGGAAATTCCG 11-mer in EMSA-Seq ligands
binding signal [3]: 20.4 z-score | binding signal [4]: 40.9 z-score | binding signal [5]: 13 z-score

AGGAAATTCCG (double strand)
binding signal (Kd, unit not seen) [6]: 1.7 | binding signal (Kd, unit not seen) [7]: 3.25 | binding signal (Kd, unit not seen) [8]: 4.6

AGGGGAAGTTA 11-mer in EMSA-Seq ligands
binding signal [3]: 35.4 z-score | binding signal [4]: 3.78 z-score | binding signal [5]: 27.5 z-score

AGGGGGATCTG 11-mer in EMSA-Seq ligands
binding signal [3]: 23.1 z-score | binding signal [5]: 18.4 z-score

CTGGGGATTTA 11-mer in EMSA-Seq ligands
binding signal [3]: 24.2 z-score | binding signal [4]: 10.8 z-score | binding signal [5]: 19.5 z-score

AGGGGGATCTG microarray probes
binding signal [9]: 2.39 z-score | binding signal [10]: 1.76 z-score

AGGGGGATCTG footprint probe
Kd [1]: 10.5 nM | Kd [2]: 2 nM

AGGAAATTCCG footprint probe
Kd [1]: 4.6 nM | Kd [11]: 3.25 nM | Kd [2]: 1.7 nM

AGGGGGATCTG (double strand)
binding signal (Kd, unit not seen) [6]: 2 | binding signal (Kd, unit not seen) [8]: 10.5

AGGAAATTCCG microarray probes
binding signal [9]: 1.2 z-score | binding signal [12]: 3.7 z-score | binding signal [10]: 0.55 z-score

CTGGGGATTTA footprint probe
Kd [1]: 16 nM | Kd [2]: 13.8 nM
